# Laboratory results published in the supplement of paper PMC7125110.
# ± gives the standard error. This sample holds only a part of the variants without activity.
# B1: glmS ribozyme (parent)
# chain: AUAAAAGCGCCAGAACUACAGAAAUGUAGUUGACGAGGAGGAGGUUUAUCGAAUUUUCGGCGGAUGCCUCCAAA
# Tests used:
# Settings in all cases: with glucosamine-6-phosphate
# glucosamine-6-phosphate [1] = variants of: B1; assay: self-cleavage kobs at 40 uM GlcN6P; higher = faster cleavage; RNA array
# Outline: (§1)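 The measurements used barcoded ribozyme variants on sequenced MiSeq chips, transcribed in situ by E. coli RNA polymerase and tracked at 37 °C with a hybridised Cy3 probe. Glucosamine-6-phosphate, 40 μM to 10 mM in HEPES/KCl/Mg(OAc)2 buffer, was flowed in while tiles were imaged over ~14 h. Baseline-normalised signals, also normalised to non-cleaving reference variants, gave per-tile medians that were fit to one- or two-exponential decays for kobs. kcat and KM resulted from weighted Michaelis–Menten fits across concentrations.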
# glucosamine-6-phosphate [2] = variants of: B1; assay: self-cleavage kobs at 160 uM GlcN6P; higher = faster cleavage; RNA array
# Outline: as §1
# glucosamine-6-phosphate [3] = variants of: B1; assay: self-cleavage kobs at 640 uM GlcN6P; higher = faster cleavage; RNA array
# Outline: as §1
# glucosamine-6-phosphate [4] = variants of: B1; assay: self-cleavage kobs at 2500 uM GlcN6P; higher = faster cleavage; RNA array
# Outline: as §1
# glucosamine-6-phosphate [5] = variants of: B1; assay: self-cleavage kobs at 10000 uM GlcN6P; higher = faster cleavage; RNA array
# Outline: as §1
Variant,self-cleavage kobs at 40 uM GlcN6P (glucosamine-6-phosphate [1]) [s⁻¹],self-cleavage kobs at 160 uM GlcN6P (glucosamine-6-phosphate [2]) [s⁻¹],self-cleavage kobs at 640 uM GlcN6P (glucosamine-6-phosphate [3]) [s⁻¹],self-cleavage kobs at 2500 uM GlcN6P (glucosamine-6-phosphate [4]) [s⁻¹],self-cleavage kobs at 10000 uM GlcN6P (glucosamine-6-phosphate [5]) [s⁻¹]
AUAAAAGCGCAAGAACUACAGAAAUGUAGUUGACGAGGAGGAGGUUUAUCGAAUUUUCGUCGGAUGCCUCCAAA,< 1e-05,< 1e-05,< 1e-05,< 1e-05,< 1e-05
AUAAAAGCGCCAGGAGUACAGAAAUGUAGUUGACGAGUAGGAGGUUUAUGGAAUUUUCGGCGGAUGACUCCAAA,0.000102 ± 1.6e-05,–,–,–,9.71e-05 ± 2.1e-05
AUAAAAACGCCAGAACUACAGAAAUGUAGUUGACGAGGAAGAGGUUUAUCGAGUUUUCGCCGGAUGCUUCCAAA,< 1e-05,–,< 1e-05,< 1e-05,–
AUAAAAGCGCCAGAACUACAGAAAUGUAGUUGACGAGGAGGAGUUUUAUCGAAUUUUCGGGGGAUGCCUCCAAA,< 1e-05,< 1e-05,< 1e-05,< 1e-05,< 1e-05
AUAAAAGCGCCAGAACUACAGAAAUGUAGUUGACGAGGAGAAGGUUUGUCGAAUUUUCGGCGGAUGCCUCCAAA,< 1e-05,< 1e-05,< 1e-05,< 1e-05,–
AUAAAAGCGCCAGAACUACAGAAAUGUAGUUGACGAGGAAGAGGUUUAUGGAAUUUUCGGCGGAUCCCUCCAAA,0.00112 ± 0.00049,–,–,–,0.00127 ± 0.00049
AUAAAAGCGCCAGAACUACAGAAAUGUAGUUGCCGAGGAGGAGGUUUAUCGAAUCUCCGGCGGAUGCCUCCAAA,< 1e-05,–,–,–,< 1e-05
AUAAAAGCGCCAGAACUACAGAAAUGUAGUUGACGAGGACGAGGUUUAUCGAAGUUUCGGCGGAUGCCUCCAAA,0.000126 ± 1.3e-05,0.000127 ± 3e-05,0.000766 ± 0.00015,0.0025 ± 0.00059,0.00251 ± 0.00031
AUAAAAGCGCCAGAACUACAGAAAUGUAGUGGACGAGGAGGAGGUUUAUCGAAAUUUCGGCGGAUGCCUCCAAA,0.000582 ± 0.00015,–,–,0.00634 ± 0.0018,0.00833 ± 0.002
AUAAAAGCGCCAGAACUACAGAAAUGUAGUUGACGAGGAGGAGGUUUCUCUAAUUUUCGGCGGAUGCCUCCAAA,< 1e-05,–,< 1e-05,–,< 1e-05
AUAAAAGCGCCAGAACUACAGAAAUUUAGUUGACGAGGAGGAGGUUUAUGGAAUUUUCGGCGGAUGCCUCCAAA,4.71e-05 ± 1.9e-05,–,–,–,3.96e-05 ± 1.3e-05
AUAAAAGCGCCAGAAUUACAGAAAUGUAGUUGAAGAGGUGGAGGUUUAUCGUAUUUUCGGCGGAUGCCUACAAA,< 1e-05,–,< 1e-05,–,–
AUAAAAGCGCCUGAACUACAGAAAUGUAGUUUACGAGGAGGAGGUUUAUGGAAUUUUCGGCGGAUGCCUCCAAA,7.78e-05 ± 3.4e-05,–,–,–,–
